Assay results taken from the supplement of paper PMC9170038.

System: MS2 coat protein
Experiment: apparent KD of MS2 coat protein; designed switch direction (-1 OFF switch, 1 ON switch): 1; higher = weaker reporter binding
Summary of the method: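 Designed RNA switches with common flanks were transcribed on Illumina chips by stalled E. coli RNA polymerase and titrated with SNAP-549-labelled MS2 coat protein, from 0.7 or 1.5 nM doubling to 3 µM, in Tris-HCl pH 7.5 buffer with KCl, MgCl2, BSA, DTT, tRNA and Tween-20. Steps lasted 0.8–1.5 h (lowest) to 10–20 min (highest). Titrations ran without input, with 200 uM small-molecule ligand, or with an oligonucleotide input. Normalised cluster fluorescence was curve-fitted, and apparent KD is the per-design median over clusters.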

[1] = Eterna round: R95, input ligand: FMN 200 uM
[2] = Eterna round: R95, input ligand: microRNA oligo, concentration not stated
[3] = Eterna round: R95, input ligand: none
[4] = input ligand: microRNA oligo, concentration not stated

Sequence | apparent KD of MS2 coat protein [1] [nM] | apparent KD of MS2 coat protein [2] [nM] | apparent KD of MS2 coat protein [3] [nM] | apparent KD of MS2 coat protein [4] [nM] | apparent KD of MS2 coat protein (input ligand: FMN 200 uM) [nM] | apparent KD of MS2 coat protein (input ligand: none) [nM]
AUAAGGCAAGCUUUUUUCUCGUAGUGUAAACAUGAGGAUCACCCAUGUGCCCACCCUGGAUCUUUGGAUCGCAGAAC [Sobiisarre] (puzzle: Sensor for hsa-mir-208a) | 20.3 | 15.2 | 22.7 |  |  | 
AUAAGUUCGAUGCUCGUCUCUCCGUACAAACAUGAGGAUCACCCAUGUGGCCGGGAAGUAGCCCGACCAGUAUGGCC [Tearbeorve] (puzzle: Sensor for hsa-mir-208a) | 38.6 | 27.1 | 45.2 |  |  | 
AUAAGUUCGAUGCUCGUCUCUCCGUACAAACAUGAGGAUCACCCAUGUGGUCGGGAAGUAGCCCGGCCAGUAUGACC [Arbesoce] (puzzle: Sensor for hsa-mir-208a) | 31.2 | 22 | 29 |  |  | 
AUAAGUUUGAUGCUCGUCUCUCCGUACAGACAUGAGGAUCACCCAUGUAGUCAGGAAGUAGCCUGGCCAGUAUGGCC [Berave] (puzzle: Sensor for hsa-mir-208a) | 27.5 | 16.6 | 31.1 |  |  | 
AUAAUACAUGAGGAUCACCCAUGUAAUUUAACUUGUAAGAUCAAGGAUAUCAGCUCGAUUAGAGCUGAGAAGGUGAUCACAUGU [SSNG3/20-A2] (Eterna round: R96, puzzle: Same State NG 3) |  |  |  | 69.1 |  | 
AUACAUAUCAGAGGAUAUCACGUCGAUUAGACGUGAGAAGGCUGAUCACACAUGAAUAUUAAUACAUGAGGAUCACCCAUGUAU [SSNG1/14-A2] (Eterna round: R96, puzzle: Same State NG 1) |  |  |  | 14.8 | 20.6 | 18.8
AUAGUUUCCGAAGGAUAUGAUGAGGAUCACCCAUCAGAAGGUUGGCUAUUGGGCUGACAUGAGGAUCACCCAUGUUCUGGUGUU (Eterna round: R96, puzzle: Same State NG 1) |  |  |  | 33.2 | 39.1 | 57
AUAUGAGAAGCAGGAUAUGUGGAGAAGAAACAAACAGAAGGGUUUAUGGGACAACAUGAGGAUCACCCAUGUUCUCUGUGAUGA [AK SSNG1-V2-2] (Eterna round: R96, puzzle: Same State NG 1) |  |  |  | 44.3 | 52.5 | 59.2
AUAUGAGAAGCAGGAUAUGUGGAGAAGAAAGAAACAGAAGGGCUUAUGGGACAACAUGAGGAUCACCCAUGUUCUCUGUGAUGA [AK SSNG1-V2-2.1] (Eterna round: R96, puzzle: Same State NG 1) |  |  |  | 144 | 42.8 | 188
AUGAAGAAUUAAGGAUAUUGAAUACAUAUGUUUAACAUGAGGAUCACCCAUGUGGGUUGCGGUAUCGAGAAGGUAAAAUAAUAG [Mat - same State NG 2 - JL mod - D91] (Eterna round: R96, puzzle: Same State NG 2) |  |  |  | 79.4 | 162 | 136
AUGGUGCAGGUACAGGAUAUGUUGCUCGUAACAUGAGGAUCACCCAUGUACCUAUGAGAAUAAAUGCAGAAGGGUGCACACCACG [Mat - Same State 2 - Mod of UCT - D92] (puzzle: Same State 2) | 57 | 3220 | 156 |  |  | 
AUGGUGCAGGUACAGGAUAUGUUGCUCGUAACAUGAGGAUCACCCAUGUACCUAUGAGAUUAAAUGCAGAAGGGUGCACACCACU [Mat - Same State 2 - Mod of UCT - D89] (puzzle: Same State 2) | 77.1 | 613 | 158 |  |  | 
AUUAAACAUGAGGAUCACCCAUGUCAACAAAGUCGAGGAUAUGGGCAUAUUAUAUAAUAACCAGAAGGCGAAUAAU [salish99_ss1_r3_084] (puzzle: Same State 1) | 11.1 | 12.8 | 13.8 |  |  | 
AUUAUUAAUGCAGGAUAUGAUUAACAUGAGGAUCACCCAUGUGGUGUUGUGAGUAAGGAGAGUGAUCAGAAGGGCAUUUUGUUU [JMF's solution 12] (Eterna round: R96, puzzle: Same State NG 2) |  |  |  | 526 | 1130 | 591
